molecular target: 3E1 Fab, P01857;P01834; conditions: parent: est. 100; read off a plot

Q: For “full-length, wild-type HA from A/Washington/05/2011 (H1N1) HA2:D19A”, which percent of parent is on record?
A: 100%

Q: Which percent of parent does the source give for “full-length, wild-type HA from A/Washington/05/2011 (H1N1) HA1:H38S” here?
A: 97%

Q: “full-length, wild-type HA from A/Washington/05/2011 (H1N1) HA1:H18L” was tested. Which percent of parent did it give?
A: 100%

Q: With “full-length, wild-type HA from A/Washington/05/2011 (H1N1) HA2:Y34M” as the substance, how does the percent of parent read?
A: 100%
